Reference: paper PMC7644020

Experiments:
cFN^ΔRGD (mouse) = cFN^ΔRGD (mouse) (UniProt P11276)

Chain of cFN^RGE (mouse), P11276 (P11276 33-2477): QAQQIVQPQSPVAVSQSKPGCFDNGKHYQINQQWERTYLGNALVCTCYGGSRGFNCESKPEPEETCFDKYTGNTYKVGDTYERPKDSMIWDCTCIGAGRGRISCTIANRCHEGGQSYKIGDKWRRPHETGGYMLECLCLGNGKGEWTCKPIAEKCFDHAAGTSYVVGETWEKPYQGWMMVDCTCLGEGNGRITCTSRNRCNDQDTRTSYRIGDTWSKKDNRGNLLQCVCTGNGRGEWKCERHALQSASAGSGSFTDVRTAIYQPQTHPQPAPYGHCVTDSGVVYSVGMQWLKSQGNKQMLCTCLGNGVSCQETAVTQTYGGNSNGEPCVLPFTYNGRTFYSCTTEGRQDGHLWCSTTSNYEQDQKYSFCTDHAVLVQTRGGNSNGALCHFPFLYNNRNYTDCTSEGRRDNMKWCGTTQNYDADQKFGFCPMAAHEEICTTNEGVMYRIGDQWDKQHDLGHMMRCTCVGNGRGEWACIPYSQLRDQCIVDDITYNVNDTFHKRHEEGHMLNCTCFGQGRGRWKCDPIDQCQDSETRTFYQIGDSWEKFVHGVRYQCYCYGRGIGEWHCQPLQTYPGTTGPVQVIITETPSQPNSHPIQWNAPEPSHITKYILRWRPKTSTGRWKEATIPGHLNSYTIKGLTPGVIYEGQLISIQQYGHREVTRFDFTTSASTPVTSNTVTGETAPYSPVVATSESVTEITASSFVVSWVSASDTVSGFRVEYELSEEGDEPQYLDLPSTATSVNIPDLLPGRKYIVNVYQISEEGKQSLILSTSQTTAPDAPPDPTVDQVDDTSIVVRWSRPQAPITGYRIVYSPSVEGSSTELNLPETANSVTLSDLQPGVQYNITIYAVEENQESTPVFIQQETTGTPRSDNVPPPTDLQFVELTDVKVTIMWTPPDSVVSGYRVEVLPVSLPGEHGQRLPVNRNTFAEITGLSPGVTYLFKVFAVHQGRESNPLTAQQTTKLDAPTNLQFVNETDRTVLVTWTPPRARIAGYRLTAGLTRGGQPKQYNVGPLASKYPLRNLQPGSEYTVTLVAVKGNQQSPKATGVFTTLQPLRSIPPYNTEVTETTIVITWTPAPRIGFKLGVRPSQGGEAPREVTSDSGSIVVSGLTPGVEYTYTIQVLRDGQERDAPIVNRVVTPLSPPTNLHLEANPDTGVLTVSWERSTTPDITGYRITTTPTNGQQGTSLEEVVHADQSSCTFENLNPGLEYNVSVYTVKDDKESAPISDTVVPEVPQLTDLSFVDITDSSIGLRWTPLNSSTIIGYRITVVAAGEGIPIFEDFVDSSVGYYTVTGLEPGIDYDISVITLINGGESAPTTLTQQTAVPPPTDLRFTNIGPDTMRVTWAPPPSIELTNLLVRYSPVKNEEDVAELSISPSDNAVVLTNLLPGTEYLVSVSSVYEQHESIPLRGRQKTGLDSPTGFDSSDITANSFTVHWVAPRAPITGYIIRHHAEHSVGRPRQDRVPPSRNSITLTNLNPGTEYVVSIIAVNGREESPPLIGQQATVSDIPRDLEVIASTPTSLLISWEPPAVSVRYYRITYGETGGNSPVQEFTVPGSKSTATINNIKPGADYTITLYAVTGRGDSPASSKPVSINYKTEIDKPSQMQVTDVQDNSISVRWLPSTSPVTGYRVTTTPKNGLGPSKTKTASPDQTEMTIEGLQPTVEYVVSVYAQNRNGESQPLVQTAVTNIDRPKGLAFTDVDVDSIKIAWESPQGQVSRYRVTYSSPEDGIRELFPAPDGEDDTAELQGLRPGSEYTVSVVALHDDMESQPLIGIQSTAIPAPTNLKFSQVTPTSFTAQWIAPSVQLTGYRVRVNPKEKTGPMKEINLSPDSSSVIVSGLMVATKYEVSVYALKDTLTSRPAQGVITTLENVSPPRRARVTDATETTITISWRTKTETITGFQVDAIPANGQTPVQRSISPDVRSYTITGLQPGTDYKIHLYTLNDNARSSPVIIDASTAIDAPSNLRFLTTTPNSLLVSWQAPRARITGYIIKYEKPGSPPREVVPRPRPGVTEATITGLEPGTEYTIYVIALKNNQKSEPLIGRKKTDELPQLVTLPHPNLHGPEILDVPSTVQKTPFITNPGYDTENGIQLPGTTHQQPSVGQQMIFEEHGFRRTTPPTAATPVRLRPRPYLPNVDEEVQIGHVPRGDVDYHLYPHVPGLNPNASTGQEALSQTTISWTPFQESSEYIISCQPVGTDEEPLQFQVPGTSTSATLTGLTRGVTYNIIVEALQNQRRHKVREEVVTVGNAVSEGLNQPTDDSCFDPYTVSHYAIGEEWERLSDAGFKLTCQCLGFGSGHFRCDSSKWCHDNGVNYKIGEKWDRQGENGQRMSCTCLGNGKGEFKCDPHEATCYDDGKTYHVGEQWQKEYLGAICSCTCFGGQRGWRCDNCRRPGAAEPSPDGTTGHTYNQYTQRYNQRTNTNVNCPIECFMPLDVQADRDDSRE

Row | spreading area of the adherent fibroblasts on the purified cFN variant (cFN^ΔRGD (mouse)) [µm^2] | spreading area of the few adherent fibroblasts on the purified cFN variant (cFN^RGE (mouse), P11276) [µm^2] | Molecule
1 | 136 |  | α5β1 integrin on pKO-β1 fibroblasts (from UniProt P11688 45-1053; P09055 21-798) (receptor)
2 |  | 419 | α5β1 integrin on pKO-β1 fibroblasts, P11688 45-1053; P09055 21-798 (receptor) chain 1: FNLDAEAPAVLSGPPGSLFGFSVEFYRPGRDGVSVLVGAPKANTSQPGVLQGGAVYVCPWGTSPIQCTTIQFDSKGSRILESSLYSAKGEEPVEYKSLQWFGATVRAHGSSILACAPLYSWRTEKDPQNDPVGTCYLSTENFTRILEYAPCRSDFGSAAGQGYCQGGFSAEFTKTGRVVLGGPGSYFWQGQILSATQEQISESYYPEYLINPVQGQLQTRQASSVYDDSYLGYSVAVGEFSGDDTEDFVAGVPKGNLTYGYVTVLNGSDIHSLYNVSGEQMASYFGYAVAATDTNGDGLDDLLVGAPLLMERTADGRPQEVGRVYIYLQRPAGIDPTPTLTLTGQDEFSRFGSSLTPLGDLDQDGYNDVAIGAPFGGEAQQGVVFIFPGGPGGLSTKPSQVLQPLWAAGRTPDFFGSALRGGRDLDGNGYPDLIVGSFGVDKALVYRGRPIISASASLTIFPSMFNPEERSCSLEGNPVSCINLSFCLNASGKHVPNSIGFEVELQLDWQKQKGGVRRALFLTSKQATLTQTLLIQNGAREDCREMKIYLRNESEFRDKLSPIHIALNFSLDPKAPMDSHGLRPVLHYQSKSRIEDKAQILLDCGEDNICVPDLQLDVYGEKKHVYLGDKNALNLTFHAQNLGEGGAYEAELRVTAPLEAEYSGLVRHPGNFSSLSCDYFAVNQSRQLVCDLGNPMKAGTSLWGGLRFTVPHLQDTKKTIQFDFQILSKNLNNSQSNVVSFPLSVEAQAQVSLNGVSKPEAVIFPVSDWNPQDQPQKEEDLGPAVHHVYELINQGPSSISQGVLELSCPQALEGQQLLYVTKVTGLSNCTSNYTPNSQGLELDPETSPHHLQKREAPGRSSTASGTQVLKCPEAKCFRLRCEFGPLHRQESRSLQLHFRVWAKTFLQREYQPFSLQCEAVYEALKMPYQILPRQLPQKKLQVATAVQWTKAEGSNGVPLWIIILAILFGLLLLGLLIYVLYKLGFFKRSLPYGTAMEKAQLKPPATSDA chain 2: QTDKNRCLKANAKSCGECIQAGPNCGWCTNTTFLQEGMPTSARCDDLEALKKKGCQPSDIENPRGSQTIKKNKNVTNRSKGMAEKLRPEDITQIQPQQLLLKLRSGEPQKFTLKFKRAEDYPIDLYYLMDLSYSMKDDLENVKSLGTDLMNEMRRITSDFRIGFGSFVEKTVMPYISTTPAKLRNPCTSEQNCTSPFSYKNVLSLTDRGEFFNELVGQQRISGNLDSPEGGFDAIMQVAVCGSLIGWRNVTRLLVFSTDAGFHFAGDGKLGGIVLPNDGQCHLENNVYTMSHYYDYPSIAHLVQKLSENNIQTIFAVTEEFQPVYKELKNLIPKSAVGTLSGNSSNVIQLIIDAYNSLSSEVILENSKLPDGVTINYKSYCKNGVNGTGENGRKCSNISIGDEVQFEISITANKCPNKESETIKIKPLGFTEEVEVVLQFICKCNCQSHGIPASPKCHEGNGTFECGACRCNEGRVGRHCECSTDEVNSEDMDAYCRKENSSEICSNNGECVCGQCVCRKRDNTNEIYSGKFCECDNFNCDRSNGLICGGNGVCRCRVCECYPNYTGSACDCSLDTGPCLASNGQICNGRGICECGACKCTDPKFQGPTCETCQTCLGVCAEHKECVQCRAFNKGEKKDTCAQECSHFNLTKVESREKLPQPVQVDPVTHCKEKDIDDCWFYFTYSVNGNNEAIVHVVETPDCPTGPDIIPIVAGVVAGIVLIGLALLLIWKLLMIIHDRREFAKFEKEKMNAKWDTGENPIYKSAVTTVVNPKYEGK
